From US20130137856A1, “PROTEIN BINDING DOMAINS STABILIZING FUNCTIONAL CONFORMATIONAL STATES OF GPCRS AND USES THEREOF” (priority 2010, published 2013)
Entries after “also recorded” stand apart in the source; their conditions may differ.

Legend:
[1] = molecular target: T1, β2AR (Homo sapiens, UniProt P07550); assay: Monobromobimane (mBBr) fluorescence of labeled purified β2AR; assay type: biochemical; conditions: for mBBr fluorescence change of isoproterenol-bound β2AR with nanobody (active state): 1 μM nanobody plus full agonist isoproterenol
Text: To investigate the effect of nanobodies on movement of the cytoplasmic domain of TM6 we labeled purified β2AR at C265 with monobromobimane (mBB-β2AR). […] In mBB-β2AR, the addition of agonist together with G protein results in larger fluorescent changes than either agonist or G protein alone. This is compatible with the cooperative interactions observed in agonist competition binding assays (Yao et al. 2009).
Purified β2AR was reacted with 1:1 equivalent of monobromobimane (mBBr, Invitrogen) in 100 mM NaCl, 20 mM HEPES, pH 7.5, 0.1% dodecyl maltoside and incubated overnight on ice in the dark. The fluorophore-labeled receptor was purified right before use by gel filtration on a desalting column equilibrated with the same buffer. […] All experiments were performed at 25° C. […] To determine the effect of nanobodies and ligands, three individual labeled protein samples were incubated with 1 μM nanobody or 10 μM Isoproterenol or both. Emission spectra of the samples were taken after 1 hour incubation.

[2] = tested on: β2AR; assay: Size exclusion chromatography of nanobody with purified detergent-solubilized β2AR; assay type: binding, human; conditions: 20 μM β2AR bound to an agonist, 40 μM nanobody
Procedure: The mixture was then analyzed by Size Exclusion Chromatography (SEC), which separates protein on the basis of size. Seven of the nanobodies bound to purified β2AR and migrated as a complex on SEC only in the presence of agonist and not an inverse agonist (an example is shown in FIG. 1, Panel a, FIG. 3 and FIG. 4).
Agonist selective nanobodies were identified by size exclusion chromatography following incubation of 20 μM agonist or inverse agonist- (carazolol-) bound β2AR-365N for one hour at RT in the absence or presence of 40 μM nanobody.

[3] = molecular target: T1, β2AR; assay: [3H]-DHA competition binding on Sf9 insect cell membranes expressing β2AR, with or without nanobody; design: recombinant β2AR truncated at Gly365 (β2AR-365); made in house; host or cells: Sf9 insect cells (membranes); conditions: agonist competition binding with versus without nanobody
Text: Panel b: Dose-response competition binding experiments on Sf9 insect cell membranes expressing β2AR.

[4] = molecular target: T1, β2AR; assay: Fluorescent (CPM) thermal stability assay of detergent-solubilized β2AR
Procedure: (§1) The effect of conformational selective nanobodies on the thermostability and the subsequent aggregation of the β2AR receptor was analyzed using a fluorescent thermal stability assay (FIG. 13) and size exclusion chromatography (FIG. 14).
The fluorescent thermal stability assay makes use of the thiol-specific fluorochrome N-[4-(7-diethylamino-4-methyl-3-coumarinyl)phenyl]maleimide (CPM) to measure the chemical reactivity of the native cysteines embedded in the protein interior as a sensor for the overall integrity of the folder state of membrane proteins (Alexandrov et al. 2008). For the fluorescent thermal stability assay, detergent-solubilized receptor (in 0.1% dodecylmaltoside, 100 mM NaCl and 20 mM Hepes pH 7.5) was pre-incubated with isoproterenol (10 μM) in the presence or absence of a 2:1 molar excess of Nb80 for one hour at RT. Samples were then mixed with CPM fluorophore and incubated for two minutes at temperatures ranging from 10° C. to 94° C. and fluorescence emission was collected. […] Unfolding transitions could be described by a simple two-state model, including the native (folded) and the denaturated state, representing the lower and upper plateaus of the melting curves.

[5] = tested on: β2AR-T4L; assay: [3H]-DHA competition binding on β2AR-T4L reconstituted in HDL particles; design: species or system human
[6] = molecular target: T1, β2AR; assay: Competition radioligand binding on commercial insect cell membranes with full-length human β2AR, Nb80 versus irrelevant Nb; conditions: radioligand displacement with Nb80 versus irrelevant Nanobody
[7] = molecular target: T1, β2AR; assay: Bimane fluorescence spectroscopy on mBB-β2AR reconstituted in HDL particles; conditions: Nb80 with 10 μM isoproterenol
[8] = molecular target: T1, β2AR; assay: [3H]-DHA competition binding on β2AR reconstituted in HDL particles; design: recombinant β2AR truncated at Gly365 (β2AR-365); made in house; host or cells: Sf9 insect cells (membranes)
[9] = Effect of Nb80 on ligand affinity of an unrelated receptor; assay type: binding; conditions: data not shown
[10] = molecular target: T1, β2AR; assay: Temperature-induced aggregation of β2AR analyzed by SEC; conditions: DDM-solubilized β2AR, 10 μM isoproterenol, 2:1 molar excess of Nb80, 10 minutes at increasing temperatures
Procedure: as §1
We also analyzed the effect of Nb80 on the thermal unfolding and aggregation of the agonist-bound receptor by size exclusion chromatography (SEC). For this experiment, dodecylmaltoside-solubilized receptor was pre-incubated with isoproterenol (10 μM) in the presence or absence of a 2:1 molar excess of Nb80 for 45 minutes at RT. Samples were next incubated for 10 minutes at increasing temperatures and subsequently analyzed by SEC (FIG. 14).

[11] = molecular target: human β1AR (Homo sapiens, UniProt P08588); assay: [3H]-DHA competition binding on β1AR with and without Nb80
Sequence of human β1AR (P08588 whole entry): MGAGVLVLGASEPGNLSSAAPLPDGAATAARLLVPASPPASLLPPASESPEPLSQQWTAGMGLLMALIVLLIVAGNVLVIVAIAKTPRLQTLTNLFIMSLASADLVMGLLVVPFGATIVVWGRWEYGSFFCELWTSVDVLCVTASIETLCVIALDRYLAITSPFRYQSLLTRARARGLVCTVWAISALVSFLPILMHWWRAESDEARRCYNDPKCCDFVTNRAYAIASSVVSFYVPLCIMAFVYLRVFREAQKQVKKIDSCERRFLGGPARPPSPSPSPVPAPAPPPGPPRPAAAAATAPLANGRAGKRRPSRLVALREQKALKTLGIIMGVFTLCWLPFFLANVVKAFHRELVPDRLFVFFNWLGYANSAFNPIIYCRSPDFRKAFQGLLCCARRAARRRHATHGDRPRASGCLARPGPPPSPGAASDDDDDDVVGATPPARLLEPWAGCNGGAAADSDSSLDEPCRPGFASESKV
Text: Active state stabilizing Nanobodies that are cross-reactive to related receptors can be used as a tool to stabilize a conformational state of those related receptors. […] Using the PISA server (Krissinel & Henrick, 2007) and based on the crystal structure of the Nb80-β2AR complex, 30 β2AR AA residues were identified to interact with Nb80 in the β2AR-Nb80 interface. […] The remaining interface residues are lysines in β2AR and have been substituted by arginines in β1AR corresponding to conserved substitutions (shown in grey boxes in FIG. 17). It thus appears that both receptors share a very similar binding site for Nb80. Based on this analysis, we also measured the effect of Nb80 on the affinity of […] for the agonist isoproterenol and the inverse agonist CGP20712A (FIG. 18).

B1: NB71: β2AR-specific nanobody, SEQ ID NO:25 (protein, listed as Lama glama)
VHH: QVQLQESGGGLVQPGGSLRLSCAASGFAFSSYELRWYRQAPGKQHELVAGITTGGNTYYADSVKGRFTISRDNAKNTVYLQMSNLRPEDTAVYACNANWDLLSDYWGQGTQVTVSS
[1]; listed as 71
  mBBr fluorescence change of isoproterenol-bound β2AR with nanobody (active state): Comparable results; also recorded: stabilize a more active state
[2]
  Complex formation with agonist-bound β2AR on SEC: complex formation
[3]
  Enhancement of β2AR affinity for the agonist isoproterenol in the presence of the nanobody: two- to thirty-fold

B2: NB69: β2AR-specific nanobody, SEQ ID NO:26 (protein, listed as Lama glama)
VHH: QVQLQESGGGLVQPGGSLRLSCAASGSIFSINAMGWYRQAPGKQRDLVASITSGGSTNYADSVKGRFTISRDNAKNTVYLQMNSLKPEDTAVYYCNVQGTGPSSWLFNEYDYWGQGTQVTVSS
[1]; listed as 69
  mBBr fluorescence change of isoproterenol-bound β2AR with nanobody (active state): Comparable results; also recorded: stabilize a more active state
[2]
  Complex formation with agonist-bound β2AR on SEC: complex formation
[3]
  Enhancement of β2AR affinity for the agonist isoproterenol in the presence of the nanobody: two- to thirty-fold

B3: NB84: β2AR-specific nanobody, probably CA2784, SEQ ID NO:29; CA3484 carries the same short notation (protein, listed as Lama glama)
VHH: QVQLQESGGGLVQAGGSLRLSCAASGSIFSINAMGWYRQAPGKQRELVAAITSGGSTTYADSVKGRFTVSRDNAKNTVYLQMIRLKPEDTAVYYCHVRDIYSDFLGQYEYDYWGQGTQVTVSS
[1]; listed as 84
  mBBr fluorescence change of isoproterenol-bound β2AR with nanobody (active state): Comparable results; also recorded: stabilize a more active state
[2]
  Complex formation with agonist-bound β2AR on SEC: complex formation
[3]
  Enhancement of β2AR affinity for the agonist isoproterenol in the presence of the nanobody: two- to thirty-fold

B4: NB65: β2AR-specific nanobody, SEQ ID NO:5 (protein, listed as Lama glama)
VHH: QVQLQESGGGLVQAGGSLRLSCAASGSIFSINTMGWYRQAPGKQRELVAAIHSGGSTNYADSVRGRFTISRDNAKNTVYLQMNSLKPEDTAVYYCNVKDYGAVLYEYDYWGQGTQVTVSS
[1]; listed as 65
  mBBr fluorescence change of isoproterenol-bound β2AR with nanobody (active state): Comparable results; also recorded: stabilize a more active state
[2]
  Complex formation with agonist-bound β2AR on SEC: complex formation
[3]
  Enhancement of β2AR affinity for the agonist isoproterenol in the presence of the nanobody: two- to thirty-fold

B5: NB80: β2AR-specific nanobody, SEQ ID NO:4; lead nanobody stabilizing the active state (protein, listed as Lama glama)
VHH: QVQLQESGGGLVQAGGSLRLSCAASGSIFSINTMGWYRQAPGKQRELVAAIHSGGSTNYANSVKGRFTISRDNAANTVYLQMNSLKPEDTAVYYCNVKDYGAVLYEYDYWGQGTQVTVSS
[1]
  mBBr fluorescence change of isoproterenol-bound β2AR with nanobody (active state): larger changes were observed when both agonist and nanobody were added together; also recorded: stabilizes a more active state
[1]; Nb80 alone, no agonist
  mBBr fluorescence change of β2AR with nanobody alone: relatively small changes in fluorescence
[4]; DDM-solubilized, isoproterenol-bound β2AR, 2:1 molar excess of Nb80
  Apparent melting temperature for β2AR with Nb80: 24 °C
[4]; isoproterenol (10 μM)-bound β2AR with versus without Nb80
  Increase of the melting temperature (Tm) of the agonist-bound receptor: 12 °C
[2]
  Complex formation with agonist-bound β2AR on SEC: β2AR-agonist-Nb80 complex formation
[5]; β2AR-T4L/HDL with Nb80 versus without
  Increase of isoproterenol affinity in the presence of Nb80: 60 fold
[5]; β2AR-T4L/HDL, ICI-118,551 competing against [3H]-DHA
  Effect of Nb80 on affinity for the inverse agonist ICI-118,551: does not increase the affinity
[6]
  Effect of Nb80 on β2AR affinity for agonists and antagonists: increases β2AR affinity for agonists but not for antagonists
[7]
  Effect on bimane fluorescence in the presence of isoproterenol: increased
[8]; β2AR/HDL with Nb80 versus without
  Increase of isoproterenol affinity in the presence of Nb80: 95 fold
[8]; β2AR/HDL, ICI-118,551 competing against [3H]-DHA
  Effect of Nb80 on affinity for the inverse agonist ICI-118,551: does not increase the affinity; also recorded: little effect
[9]
  Effect of Nb80 on unrelated receptors: No such effect
[10]
  Effect on temperature-induced aggregation of the agonist-bound receptor: protects the agonist-bound receptor against temperature-induced aggregation
[11]
  Conformational selectivity of Nb80 binding to human β1AR: selectively binds the active conformation
[11]; [3H]-DHA competition
  Effect of Nb80 on affinity of the agonist isoproterenol for β1AR: increased affinity
  Effect of Nb80 on β1AR affinity for CGP20712A: does not change the affinity
[3]
  Enhancement of β2AR affinity for the agonist isoproterenol in the presence of the nanobody: two- to thirty-fold

B6: NB72: β2AR-specific nanobody, probably CA2772, SEQ ID NO:24; CA3472 carries the same short notation (protein, listed as Lama glama)
VHH: QVQLQESGGGLVQPGGSLRLSCAASGFTFSGYAMNWVRQAPGKGPEWVSAINSGGGSTSYADSVKGRFTISRDNAKNTVYLQMNSLKPEDTAVYYCHARDIYSDFLGQYEYDYWGQGTQVTVSS
[1]; listed as 72
  mBBr fluorescence change of isoproterenol-bound β2AR with nanobody (active state): Comparable results; also recorded: stabilize a more active state
[2]
  Complex formation with agonist-bound β2AR on SEC: complex formation
[3]
  Enhancement of β2AR affinity for the agonist isoproterenol in the presence of the nanobody: two- to thirty-fold

B7: NB67: β2AR-specific nanobody, SEQ ID NO:20 (protein, listed as Lama glama)
VHH: QVQLQESGGGLVQAGGSLRLSCAASGTISSFIAMGWYRQSPGKQRELVAGITSGGETNYEDSVKGRFTISRDNAKNTLYLQMNTLKPEDTAVYYCNAQVFADIFNLINYWGQGTQVTVSS
[1]; listed as 67
  mBBr fluorescence change of isoproterenol-bound β2AR with nanobody (active state): Comparable results; also recorded: stabilize a more active state
[2]
  Complex formation with agonist-bound β2AR on SEC: complex formation
[3]
  Enhancement of β2AR affinity for the agonist isoproterenol in the presence of the nanobody: two- to thirty-fold
